The supplement of paper PMC10567573
± gives the standard deviation.

Assay: protein stability index of a GFP-peptide fusion (GPS, HEK-293T) (PSI 1-6); higher = more stable
Details: c terminus: a fixed tail appended
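Also: 24-mer peptide tiles fused after GFP, lentivirally expressed, FACS-sorted into six equal bins by GFP/DsRed ratio, decoded by Illumina sequencing, PSI is the read-weighted mean bin number.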

QRRSRQNPQSPPQDSSVTSKRNIK [HDAC6]
protein stability index (treatment: DMSO): 5.26 ± 0.51 | protein stability index (treatment: MLN4924 1 uM, 8 h): 5.27 ± 0.31

APGSSVEYQCQNLYQLEGNNQITC [CFHR2]
protein stability index (treatment: DMSO): 3.88 ± 0.12 | protein stability index (treatment: MLN4924 1 uM, 8 h): 3.88 ± 0.17

PGPMGPPGPPGPTGVPGSPGHIGP [EMID1]
protein stability index (treatment: DMSO): 4.82 ± 0.4 | protein stability index (treatment: MLN4924 1 uM, 8 h): 5.18 ± 0.34

SDTTPLPSWAALNSSTWGSLKQAL [SNX8]
protein stability index (treatment: DMSO): 2.7 ± 0.2 | protein stability index (treatment: MLN4924 1 uM, 8 h): 2.94 ± 0.12

TNNPRFDKMEGNPICVQIPWDKNP [CRY1]
protein stability index (treatment: DMSO): 3.47 ± 0.3 | protein stability index (treatment: MLN4924 1 uM, 8 h): 3.69 ± 0.25

LPQEDPSTSQGCAQPQGAPCCSSS [FEM1A]
protein stability index (treatment: DMSO): 5.48 ± 0.12 | protein stability index (treatment: MLN4924 1 uM, 8 h): 5.37 ± 0.19

NHHSPGGSSDASGSYSSTMNGHQN [ESRRG]
protein stability index (treatment: DMSO): 4.86 ± 0.23 | protein stability index (treatment: MLN4924 1 uM, 8 h): 5.05 ± 0.17

SFFYPVLFVLFMFFGMAFNFIVND [SOAT1]
protein stability index (treatment: DMSO): 2 ± 0.2 | protein stability index (treatment: MLN4924 1 uM, 8 h): 1.96 ± 0.32

FFSKRFKSAAMLAVFAVSAVVHEY [SOAT1]
protein stability index (treatment: DMSO): 2.35 ± 0.9 | protein stability index (treatment: MLN4924 1 uM, 8 h): 3.06 ± 0.41

ADCVRGPDGVCLSGGRGPQGDKAI [PBXIP1]
protein stability index (treatment: DMSO): 4.52 ± 0.57 | protein stability index (treatment: MLN4924 1 uM, 8 h): 4.78 ± 0.22

GTLCIGAAAFSQCEEWSFFHAYYY [KCNK9]
protein stability index (treatment: DMSO): 2.58 ± 0.53 | protein stability index (treatment: MLN4924 1 uM, 8 h): 2.9 ± 0.66

EFSTSLFSGSLEPVACGSVLSEGS [SRPK2]
protein stability index (treatment: DMSO): 3.98 ± 0.19 | protein stability index (treatment: MLN4924 1 uM, 8 h): 4.04 ± 0.26

REENEKLRLENSSLFSQALKDEEA [CCDC89]
protein stability index (treatment: DMSO): 5.41 ± 0.46 | protein stability index (treatment: MLN4924 1 uM, 8 h): 5.41 ± 0.37

KRKLDTILNLERDVEDLQRDKARL [NFE2L1]
protein stability index (treatment: DMSO): 4.36 ± 0.25 | protein stability index (treatment: MLN4924 1 uM, 8 h): 4.46 ± 0.17

GAIAQSSIYPMEVLKTRMALRKTG [SLC25A25]
protein stability index (treatment: DMSO): 3.54 ± 0.11 | protein stability index (treatment: MLN4924 1 uM, 8 h): 3.74 ± 0.28

MSFTTRSTFSTNYRSLGSVQAPSY [KRT18]
protein stability index (treatment: DMSO): 2.37 ± 0.29 | protein stability index (treatment: MLN4924 1 uM, 8 h): 2.38 ± 0.3

KECPFRVNKVCGAACSSKRSPIID [SERPINB5]
protein stability index (treatment: DMSO): 3.02 ± 0.2 | protein stability index (treatment: MLN4924 1 uM, 8 h): 3.12 ± 0.38

QIILENQKNFGLYVQEKRDGLKRR [RAD54B]
protein stability index (treatment: DMSO): 2.41 ± 0.47 | protein stability index (treatment: MLN4924 1 uM, 8 h): 2.97 ± 0.32

TAYNKGRLQSSFWIVDKQHVYIGS [PLD5]
protein stability index (treatment: DMSO): 2.49 ± 0.45 | protein stability index (treatment: MLN4924 1 uM, 8 h): 2 ± 0.27

PKEATVMCEQCDVFYCDPCRLRCH [TRIM9]
protein stability index (treatment: DMSO): 3.65 ± 0.28 | protein stability index (treatment: MLN4924 1 uM, 8 h): 3.82 ± 0.42

ALLDLHFPSDHLGDLGDPFHLGLE [TFE3]
protein stability index (treatment: DMSO): 2.37 ± 0.36 | protein stability index (treatment: MLN4924 1 uM, 8 h): 2.32 ± 0.28

VFLASKVEEFGVVSNTRLIAAATS [CCNC]
protein stability index (treatment: DMSO): 2.46 ± 0.68 | protein stability index (treatment: MLN4924 1 uM, 8 h): 2.24 ± 0.35

MKCLKVGMLKEGVRLDRVRGGRQK [ESRRG]
protein stability index (treatment: DMSO): 3.5 ± 0.092 | protein stability index (treatment: MLN4924 1 uM, 8 h): 3.73 ± 0.21

CNDLFKVNPFQLQQFRADPSTASL [TIAF1]
protein stability index (treatment: DMSO): 2.71 ± 0.063 | protein stability index (treatment: MLN4924 1 uM, 8 h): 2.78 ± 0.18

KYELMRPSNKAPLLVLCEDHRGRM [EHMT1]
protein stability index (treatment: DMSO): 2.57 ± 0.28 | protein stability index (treatment: MLN4924 1 uM, 8 h): 2.78 ± 0.26

LKCEMNQMSGEPLDKLNFEAINFC [ACSBG2]
protein stability index (treatment: DMSO): 2.92 ± 0.41 | protein stability index (treatment: MLN4924 1 uM, 8 h): 3.16 ± 0.31

RYLVGEHQADLEVANRHGHTCLMI [FEM1A]
protein stability index (treatment: DMSO): 2.19 ± 0.42 | protein stability index (treatment: MLN4924 1 uM, 8 h): 2.38 ± 0.24

NYCSAYESFYESTSPECASPQFEG [NEUROD6]
protein stability index (treatment: DMSO): 3.54 ± 0.22 | protein stability index (treatment: MLN4924 1 uM, 8 h): 3.67 ± 0.16

RSYIKLFQAPCQRCGKFLQDGLPP [MED27]
protein stability index (treatment: DMSO): 2.19 ± 0.17 | protein stability index (treatment: MLN4924 1 uM, 8 h): 2 ± 0.1

RKKSGDLKKAKVQVERMREVNSRC [FBXO34]
protein stability index (treatment: DMSO): 4.15 ± 0.17 | protein stability index (treatment: MLN4924 1 uM, 8 h): 4.38 ± 0.42

EGSDYINASFIDGYRQQKAYIATQ [PTPRD]
protein stability index (treatment: DMSO): 3.18 ± 0.25 | protein stability index (treatment: MLN4924 1 uM, 8 h): 3.34 ± 0.23

TSSQKALMLELKSLQEEPVEGFRI [UBE2R2]
protein stability index (treatment: DMSO): 3.11 ± 0.31 | protein stability index (treatment: MLN4924 1 uM, 8 h): 3.3 ± 0.24

NWFNVTGSDKCVFLKNTEVSSMEC [CD69]
protein stability index (treatment: DMSO): 2.82 ± 0.25 | protein stability index (treatment: MLN4924 1 uM, 8 h): 2.94 ± 0.26

IIKKVAEVALDKGCSQFRLAVLDW [SAT2]
protein stability index (treatment: DMSO): 2.77 ± 0.4 | protein stability index (treatment: MLN4924 1 uM, 8 h): 2.82 ± 0.6

RVQGVLRGRAREREQLQAEASERF [HES6]
protein stability index (treatment: DMSO): 4.39 ± 0.32 | protein stability index (treatment: MLN4924 1 uM, 8 h): 4.48 ± 0.25

FVSRYKLMRHMATHSPQKSHQCAH [PLAGL1]
protein stability index (treatment: DMSO): 2.7 ± 0.37 | protein stability index (treatment: MLN4924 1 uM, 8 h): 2.55 ± 0.38

LPESGLLSVLQIAQQDLAPDPDAW [FANCE]
protein stability index (treatment: DMSO): 4.06 ± 0.19 | protein stability index (treatment: MLN4924 1 uM, 8 h): 4.01 ± 0.22

RTPSAFPQTPAAPPATLGEGSADT [EHMT1]
protein stability index (treatment: DMSO): 5.3 ± 0.21 | protein stability index (treatment: MLN4924 1 uM, 8 h): 5.25 ± 0.12

DWLRRPLGEDNQPETQLFWDKEPW [TLE6]
protein stability index (treatment: DMSO): 3.35 ± 0.34 | protein stability index (treatment: MLN4924 1 uM, 8 h): 3.22 ± 0.43

EHPGGEEVLREQAGGDATENFEDV [CYB5A]
protein stability index (treatment: DMSO): 5.47 ± 0.2 | protein stability index (treatment: MLN4924 1 uM, 8 h): 5.54 ± 0.24

VYSDHTNTNNLTFLMDLPSAGRSM [RNF180]
protein stability index (treatment: DMSO): 2.29 ± 0.45 | protein stability index (treatment: MLN4924 1 uM, 8 h): 2.79 ± 0.42

NKATNTDHLTTVLYLQLAICSSLQ [C8orf76]
protein stability index (treatment: DMSO): 3.4 ± 0.44 | protein stability index (treatment: MLN4924 1 uM, 8 h): 3.21 ± 0.64

PPAMPPPATHLSPALAPVPRNSCI [TRIM9]
protein stability index (treatment: DMSO): 4.39 ± 0.13 | protein stability index (treatment: MLN4924 1 uM, 8 h): 4.38 ± 0.17

HLARHAVACFLTRGDLWISWEEGM [CRY1]
protein stability index (treatment: DMSO): 3.01 ± 0.72 | protein stability index (treatment: MLN4924 1 uM, 8 h): 2.98 ± 0.47

LVQRQMSVIEEDLEEFQLALKHYV [NECAB1]
protein stability index (treatment: DMSO): 2.32 ± 0.36 | protein stability index (treatment: MLN4924 1 uM, 8 h): 2.6 ± 0.23
